T1: BPM1 (yeast two-hybrid) (Arabidopsis, UniProt Q8L765 1-407)
T1 construct: also called E3 ligase bridge protein BPM1; E3 ligase linker BPM protein; not shown: Y2H fusion partner
T1 sequence (looked up): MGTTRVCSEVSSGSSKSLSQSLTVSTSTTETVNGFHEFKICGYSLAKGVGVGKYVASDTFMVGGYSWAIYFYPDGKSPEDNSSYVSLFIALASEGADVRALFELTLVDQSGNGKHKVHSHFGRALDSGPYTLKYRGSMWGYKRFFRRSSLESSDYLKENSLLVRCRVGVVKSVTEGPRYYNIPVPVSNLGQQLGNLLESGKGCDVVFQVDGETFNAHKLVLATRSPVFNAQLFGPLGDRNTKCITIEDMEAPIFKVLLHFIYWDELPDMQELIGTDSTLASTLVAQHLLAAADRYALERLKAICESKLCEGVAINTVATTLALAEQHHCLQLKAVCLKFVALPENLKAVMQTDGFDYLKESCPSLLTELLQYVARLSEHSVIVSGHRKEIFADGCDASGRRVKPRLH

T2: nYFP-AtWRI1 (Arabidopsis thaliana, UniProt Q6X5Y6 1-430)
T2 construct: BiFC construct transiently produced in N. benthamiana leaves; also called 35S:nYFP-AtWRI1; not shown: N-terminal half of YFP from the BiFC vector
T2 sequence: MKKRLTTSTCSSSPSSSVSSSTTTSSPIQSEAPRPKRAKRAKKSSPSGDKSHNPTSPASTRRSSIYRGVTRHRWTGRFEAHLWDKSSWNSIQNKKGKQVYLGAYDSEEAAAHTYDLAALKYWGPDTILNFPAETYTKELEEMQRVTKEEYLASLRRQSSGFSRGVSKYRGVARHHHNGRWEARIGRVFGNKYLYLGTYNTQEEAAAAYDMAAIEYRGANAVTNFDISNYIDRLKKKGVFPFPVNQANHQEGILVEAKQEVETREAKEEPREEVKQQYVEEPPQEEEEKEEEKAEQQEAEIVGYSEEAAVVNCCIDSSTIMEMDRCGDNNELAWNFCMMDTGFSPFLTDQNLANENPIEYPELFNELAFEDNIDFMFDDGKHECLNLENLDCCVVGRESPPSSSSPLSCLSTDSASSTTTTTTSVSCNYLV

T3: full length AtWRI1 (bait fusion, yeast two-hybrid) (Arabidopsis thaliana, UniProt Q6X5Y6 1-430)
T3 construct: Transcription factor expressed in yeast as bait fusion; also called Arabidopsis thaliana WRINKLED1; not shown: bait fusion partner of the Y2H vector
T3 sequence: T2 sequence

B1: AtWRI1^1-92 (yeast two-hybrid) (other)
chain: MKKRLTTSTCSSSPSSSVSSSTTTSSPIQSEAPRPKRAKRAKKSSPSGDKSHNPTSPASTRRSSIYRGVTRHRWTGRFEAHLWDKSSWNSIQ
notes: Truncated AtWRI1 variant; not shown: Y2H fusion partner
B2: AtWRI1^1-77 (yeast two-hybrid) (other)
chain: MKKRLTTSTCSSSPSSSVSSSTTTSSPIQSEAPRPKRAKRAKKSSPSGDKSHNPTSPASTRRSSIYRGVTRHRWTGR
notes: as for B1
B3: cYFP-BPM1 (other, Arabidopsis, UniProt Q8L765 1-407, looked up)
chain: T1 sequence (looked up)
notes: BiFC construct transiently produced in N. benthamiana leaves; also called 35S:cYFP-BPM1; BTB/POZ and MATH domain-containing (BPM) 1; not shown: C-terminal half of YFP from the BiFC vector
B4: nYFP-AtWRI1^1-366 (other)
chain: MKKRLTTSTCSSSPSSSVSSSTTTSSPIQSEAPRPKRAKRAKKSSPSGDKSHNPTSPASTRRSSIYRGVTRHRWTGRFEAHLWDKSSWNSIQNKKGKQVYLGAYDSEEAAAHTYDLAALKYWGPDTILNFPAETYTKELEEMQRVTKEEYLASLRRQSSGFSRGVSKYRGVARHHHNGRWEARIGRVFGNKYLYLGTYNTQEEAAAAYDMAAIEYRGANAVTNFDISNYIDRLKKKGVFPFPVNQANHQEGILVEAKQEVETREAKEEPREEVKQQYVEEPPQEEEEKEEEKAEQQEAEIVGYSEEAAVVNCCIDSSTIMEMDRCGDNNELAWNFCMMDTGFSPFLTDQNLANENPIEYPELFNEL
notes: also called AtWRI1^Δ367-430; not shown: N-terminal half of YFP from the BiFC vector
B5: 14-3-3ν (yeast two-hybrid) (other, Arabidopsis, UniProt Q96300 1-265, looked up)
chain: MSSSREENVYLAKLAEQAERYEEMVEFMEKVAKTVDTDELTVEERNLLSVAYKNVIGARRASWRIISSIEQKEESRGNDDHVSIIKDYRGKIETELSKICDGILNLLDSHLVPTASLAESKVFYLKMKGDYHRYLAEFKTGAERKEAAESTLVAYKSAQDIALADLAPTHPIRLGLALNFSVFYYEILNSPDRACSLAKQAFDEAISELDTLGEESYKDSTLIMQLLRDNLTLWNSDINDEAGGDEIKEASKHEPEEGKPAETGQ
notes: also called 14-3-3 nu; not shown: Y2H fusion partner

Assay [1] concerns the target T1, BPM1 (yeast two-hybrid). Description: yeast two-hybrid with truncated AtWRI1 variants.
Assay [2] addresses T1, BPM1 (yeast two-hybrid). In words: yeast two-hybrid.
The target of another assay is T2, nYFP-AtWRI1. Description: BiFC, transient expression in N. benthamiana leaves. The source says: (§1) Confocal microscopy and bimolecular fluorescence complementation (BiFC) assays used 35S:YFP-AtWRI1 (including truncated AtWRI1 variants and AtWRI1 site-directed mutants fused to yellow fluorescent protein (YFP)) were generated through GATEWAY system. For BiFC experiments, 35S:nYFP-AtWRI1 (including truncated AtWRI1 variants) and 35S:cYFP-BPM1 were similarly assembled. Constructs were transformed into A. tumefaciens (GV3101 strain). For BiFC experiments to test protein-protein interaction, A. tumefaciens harboring each nYFP and cYFP fusion construct was prepared (each culture was re-suspended to 1.2 OD₆₀₀ in MMA buffer) and adjusted to 0.4 OD₆₀₀ prior to injection into plant leaves. Healthy leaves of N. benthamiana plants were infiltrated by bacterial suspensions with a 1-mL blunt-end syringe. Plants were returned to growth chambers and YFP fluorescence signals were captured by a confocal microscope 2 to 3 d after bacterial infiltration. YFP fluorescence signal intensity was analyzed using ImageJ software.
(§2) A bimolecular fluorescence complementation (BiFC) assay was used to investigate the interaction between AtWRI1 and a BPM protein (BPM1). AtWRI1 and BPM1 were subcloned to BiFC vectors which generated nYFP-AtWRI1 and cYFP-BPM1 (half N-terminus of YFP and half C-terminus of YFP, respectively). […]

The assay “cYFP-BPM1” deals with B3. Described as above.
From the text: as §1, §2

The target in assay [3] is T3, full length AtWRI1 (bait fusion, yeast …). In words: yeast two-hybrid.

Here are results for five molecules from patent publication US20180094274A1 (BOARD OF TRUSTEES OF MICHIGAN STATE UNIVERSITY, published 2018).

As to B1, the binding result with BPM1 (yeast two-hybrid) [1] is “binds”. Consider B2, for which the binding result in the assay with BPM1 (yeast two-hybrid) [2] was “no binding”. Consider B3, for which, in the assay with nYFP-AtWRI1, the binding result was “binds”. Turning to B4, the binding result in the assay with cYFP-BPM1 was “binds”. With B5, in assay [3], the binding result is listed as “binds”.
